Values of other authors as cited in paper PMC6540754.

Target: BfrB (Pseudomonas aeruginosa) (UniProt Q9HY79)
Sequence of UniProt Q9HY79 (Q9HY79 whole entry): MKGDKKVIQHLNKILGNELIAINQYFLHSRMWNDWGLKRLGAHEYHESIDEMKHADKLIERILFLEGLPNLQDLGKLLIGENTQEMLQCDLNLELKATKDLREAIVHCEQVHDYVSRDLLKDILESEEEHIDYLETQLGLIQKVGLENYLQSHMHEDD

## Bfd (from UniProt Q9HY80)
  Kd: 3.4 µM
